Measured values from the DeepSol protein solubility set.

Test: soluble on expression in E. coli; label from the status in PepcDB or PDB records
For “MDISMKQSKRNLWWSVCAGLLFCSWGCSSQVSDKPVTLETLLDEMVSVEEQALYPVPSYTCRQESSYDRASVSPDSAGWFANSDGFGIKRVDTVAGRIEKVMFDEVGPGAITRIWITTIDKRGTWRFYFDGSDQPGWIIPAYDLMRINVPGLGKGMLQAHTSYTPEGKGGNTLFLPIPYARGCKVTFEDEPGVNPTPKYYHINFRKYPEGTQVETFSKEVVERAAQKIAEVDNRLLQPVAGRKGEILREEKSILPSDSLVIPLPAGENAVYEVKFNIRIDNPEQYAQLMRELVFSAGFDGKQTVWVPLSDFSGGGMGAPKVDSWYLTSDGKGNISSRWLMPYQKDGVLKVLNLSSRSVAATMEVNVAPLKWNKDRSLYFYASWRQENGIYIHDKPEEADQCVEWNFATLKGRGVYKGDLLSLYNHAPLWYGEGDEKIWVDDDTFPSHFGTGTEDYYNSSWAPVVPFYTPFGGAPRADLESSHGYNAFYRTRHLDGIPFNKSFKFDIEMLGWKRGEADYATTIYWYGDPEAQVFGTSGIEEARRQLLPAVEASADLEHHHHHH”, the “soluble on expression in E. coli” value was “soluble”.
For “MTATPLYCAEPARLDTARRLCERFSLPLIKQRPADGYWLELGSERLELLTTGKHGAVYAEFVEGAARHRREQGGGRGQPVAKAVGLKGAKDLPHVADATAGLGRDSFVLATLGCRVTMVERSPVAAALLADALERAQRDETTRDIAARMTLVHANSRNWLAGLTEAQRPDVVFVDPMFPDTDKKSAAAKKDMQAFQQVIGDDMDSAELLAAAIAAARVRVVVKRPRLGAAIAGVKPSAVLDGKSTRFDLYVIKALASGLEHHHHHH”, the “soluble on expression in E. coli” value was “soluble”.
In the case of “MLTKANPPPSKTSPLKVWAVSDGRAGIEAQVVGLAEAISRLAPCEVTVKRVGWQGNIGRLPWWLNLLPKRWLTQESGVPDSRNPDDWPDLWIAAGRATLPLSIRAKRWSGGKSFVVQIQDPRVPPHMFDLVIPPKHDRMSGDNILPITGSPHRVTPQRLAAEYEAFQDLIEPLPRPRVAVLVGGKSKAFDLSSERAAQIAHSIQIPLEQDGGSLLMTFSRRTPETARALMTARLRHLPGVVWNGEGPNPYFAFLAAADYILVTEDSTNMATEAASTGKPVFVLKMDGSSLKFRLFHEELERQGAARPYGGAFHGWTYTPVNETDRAAREVLARIGLEHHHHHH”, the “soluble on expression in E. coli” value is reported as “not soluble”.
With “MEYNLDLARAFLQKHRIAVVEPNPPYLQFSEAQLAQQKAKLAKNLQISTACKWLFVHASTGGSATSLSIEQYAQMLNGIASETNCEIVLTAGKGESEKAYQLAAQITATKAVVYDKNDGLQDFARSIACADLFIAGSTGPLHIAGALNVATIGFYPSRLSALPRRWRPINEEGKHLEHHHHHH” the “soluble on expression in E. coli” value was “not soluble”.
In the case of “PGTESTFSNCYALNVEVVSLDSGDQAVLGGFVGQVSANFIAKHCYVSAKVTGGKNPGAFVGMTADESMNCKYDGCFYNNEQNP”, the “soluble on expression in E. coli” value is reported as “not soluble”.
With “MGHHHHHHSHKIRVAHTPDADDAFMFYAMTHGKVDTWLEIEHVIEDIETLNRKAFNAEYEVTAISAHAYALLDDKYRILSAGASVGDGYGPVVVAKSEISLDGKRIAVPGRYTTANLLLKLAVEDFEPVEMPFDRIIQAVLDEEVDAGLLIHEGQITYADYGLKCVLDLWDWWSEQVKLPLPLGLNAIRRDLSVEVQEEFLRAMRESIAFAIENPDEAIEYAMKYSRGLDRERAKRFAMMYVNDYTYNMPESVDAALKKLYEMAEAKGLI” the “soluble on expression in E. coli” value was “not soluble”.
In the case of “MSLAMNKVPGYNIYIGGVFALKNKVAMSGANITHVLSVIRLRPKDDLFAGYQHHRIEVDDLDDENLLEHFPSAIKFIQSGLDAGGGVLVHWPLTASSAMGKSRSATVCIAYLLRRQRNALTPQSALALLRESRPLCEPNPGFMEQLNVYYQMGEGHHHHHH”, the “soluble on expression in E. coli” value is reported as “not soluble”.
In the case of “MGSDKIHHHHHHMAQIIVVTSGKGGVGKTTSSAAIATGLALKGKKTVVIDFDIGLRNLDLIMGCERRVVYDFVNVINGEANLNQALIKDKRCDKLFILPASQTRDKDALTKEGVGRVLENLAKDFDYIVCDSPAGIEQGAMMALYFADIAIVTTNPEVSSVRDSDRILGMLQSRSRRAELSLEPIKEYLLLTRYSPARVKTGEMLSVEDVKEILAIELLGVIPESQSVLKASNSGVPVIIDQESDAGLAYGDTVARLLGDDVPVRFITEEKKGFLKRIFGS”, the “soluble on expression in E. coli” value is reported as “not soluble”.
For “MGSDKIHHHHHHMKNKIGSFVIADPNKCTGCRACEVACFTMHNQHNNVGYTVGTVDIPVIPRLYLVKGDNFCMPIQCRHCEDAPCLNSCPQKAIVKENNIMSVNEEKCIGCKTCLLACPFGAIDLLPQYEDGKEVEQVILDENKKIAYKCDLCKDNEKIACISACPQKALKLVTPIDDKKAKNRQAALSLLLTNK”, the “soluble on expression in E. coli” value was “not soluble”.
With “SNAMENQKMQEPLVYRRILLTVDEDDNTSSERAFRYATTLAHDYDVPLGICSVLESEDINIFDSLTPSKIQAKRKHVEDVVAEYVQLAEQRGVNQVEPLVYEGGDVDDVILEQVIPEFKPDLLVTGADTEFPHSKIAGAIGPRLARKAPISVIVVR” the “soluble on expression in E. coli” value was “soluble”.
For “MSLKYYLAPMEGITGFIYRNSYEKFFGGIDKYFAPFVVPNSSKSLKTKELRDVLPENNKGINLVPQILTNDSEGFISTARKLKQLGYNEINLNLGCPSGTVVGKKRGSGFLAHKEELDKFLEEIFKIDDMKLSIKTRLGMDKPEEFYELIKIYNKYPMEELIIHPRTRQDFYANKPNLEVFKDAISLSKNPICYNGDIFTVEDHNKLIETFPEVDKIMLGRGILANPALMNEILNNEFMDKKVLKEFHDEVFNKYREVFNEDRNAMFRMKELWGYMIYMFSNNKKYAKKIKKAQKVVEYNQAVTSLFLEQDILKGAGLFSSEEGHHHHHH”, the “soluble on expression in E. coli” value was “soluble”.
For “MGSDKIHHHHHHMKVRFLQISDLHFQFQNYDTIVMRDKLLDFIEVLRRESDFDFLLLTGDIAHKGDVYNEDVKEYLNGIIKSMGLSKNNVHLVPGNHDISRDMTRTLLIDSIMKSPNPSEMLDKLDQKATNILVEGQRKFFDFYEDFMGVKYPEEDLHFLYQSEKYNVLSINTCLLSDKKGEEGTLLTAQMKLYKAIRKMNKEKNKGKVLNIAIGHHTLGCIESSERESIKAHFDDYFIDLYLAGHVHDSSFNITANTNENPFLELVSGAIIKDEYATPEFISVDVNLDNGETEVTYYIWNTEYKYWSKNNQGGRRLQEGKLNYKINRLESLIEKEIEDNDDKIDEDEFKSFIIDFHEYRESYKTFTSNFDNQIGLDKKFYDMKSGETFKRKFDSYSEYFGVINHIMDSTSYVSADKKELIAETIVDKYLEFHNQYNNGDEIFVKIVNEIYLECHSVLPYSKALTKKYIKILTCWCIYECEIFNDNKRSVKND”, the “soluble on expression in E. coli” value was “not soluble”.
For “DQVSSLSSKYAVRLYEIIISWRAAGKTPMFSTMELRERLGMMPDEYQKMELFKRKVLDFAVKQINDKTDISITYEQHKEGRKIVGFTFSILHKIGSKDIPLENQSELFAGMTDLEAGTIRVRAEAYIASLIAKGQNVTKAHRLNILKKAVEERWGFEDVAKDNGAKNPENKNAKVVLNEWEKISNGTRFKDKDGTIWVKDSGMLRTEGTNRWIADSQIAKLFPMLTVMVEEGI”, the “soluble on expression in E. coli” value was “not soluble”.
With “FSRAIDEHFVELDHMAMSAKLAVFRDELRGLGSEQQMRRREAELLRELARHPDLGLRLNGPDGNLWFERLPQPAHPGLPANRELGAPLEPGNDASPRLTVILDISHHQHFLQRMRQL” the “soluble on expression in E. coli” value was “not soluble”.
In the case of “MSLTRKKYTYKMRSYINASHAIRWEAGIGSEHPHTWEIICEIVSSNDHMIKFEDIEEVITETISGLSGKFLNTIAPFDKINPTLENLTNYLFDMITDSLKKINCKLIRIEVGESPTRFYCISLDEGHHHHHH”, the “soluble on expression in E. coli” value is reported as “soluble”.
For “MGSDKIHHHHHHMKEILLKAENVRAYYKLEKVSVKAVDGLSFEILEDEVIGVVGESGCGKTTLSNVIFMNMVKPLTLVDGKIFLRVNGEFVELSSMTRDEVKRKFWGKEITIIPQAAMNALMPTIRMEKYVRHLAESHGIDEEELLDKARRRFEEVGLDPLWIKRYPFELSGGMRQRAVIAIATILNPSLLIADEPTSALDVVNQKVLLKVLMQMKRQGIVKSIIFITHDIATVRQIADRMIIMYAGKIVEFAPVESLLEKPLHPYTQGLFNSVLTPEPEVKKRGITTIPGAPPNLINPPSGCRFHPRCPHAMDVCKEKEPPLTEIEPGRRVACWLYMEERA”, the “soluble on expression in E. coli” value was “not soluble”.
